± gives the uncertainty stated by the source.
Assay: self-splicing fitness, log relative to wild type (ln ratio); higher = more splicing; Tetrahymena group I intron in knt gene, E. coli kanamycin selection, DiMSum; sequences stand for … in CUCUCU…GGAGGGAAAAGUUAUCAGGCAUGCACCUGGUAGCUAGUCUUUAAACCAAUAGAUUGCAUCGGUUUAAAAGGCAAGACCGUCAAAUUGCGGGAAAGGGGUCAACAGCCGUUCAGUACCAAGUCUCAGGGGAAACUUUGAGAUGGCCUUGCAAAGGGUAUGGUAAUAAGCUGACGGACAUGGUCCUAACCACGCAGCCAAGUCCUAAGUCAACAGAUCUUCUGUUGAUAUGGAUGCAGUUCACAGACUAAAUGUCGGUCGGGGAAGAUGUAUUCUUCUCAUAAGAUAUAGUCGGACCUCUCCUUAAUGGGAGCUAGCGGAUGAAGUGAUGCAACACUGGAGCCGCUGGGAACUAAUUUGUAUGCGAAAGUAUAUUGAUUAGUUUUGGAGUACUCGUGGUCG
Procedure, shortened: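 Fitness was computed with DiMSum as the error-weighted combination of replicate fold changes, kanamycin versus none, each normalised to wild type. The library randomised all eight intron nucleotides of the P1ex region, with the intron placed in the knt kanamycin-resistance gene on pET-22b(+) in E. coli BL21(DE3). Six replicate transformations were grown overnight at 37°C or 30°C on LB agar with or without 25 μg/mL kanamycin, plus 100 μg/mL carbenicillin, 50 μM IPTG and 0.2% rhamnose. Pooled colonies were amplicon-sequenced on an Illumina HiSeq 2500.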

Row | Sequence | self-splicing fitness (ln) (30 °C) | self-splicing fitness (ln) (37 °C)
1 | GUCAAGCAAUAUUACGGAUC | -2.77 ± 0.1 | -1.09 ± 0.093
2 | GUCAAGCAAUAUUACGGCAC | -1.35 ± 0.16 | 0.15 ± 0.22
3 | GUCAAGCAAUAUUACGUAUC | -2.71 ± 0.2 | -0.284 ± 0.16
4 | GUCAAGCAAUAUUACGUCUG | -3.64 ± 0.28 | -0.0416 ± 0.085
5 | GUCCAGCAAUAUUACGAACG | -1.52 ± 0.13 | -0.855 ± 0.16
6 | GUCCAGCAAUAUUACGAACU | -1.37 ± 0.074 | -0.292 ± 0.081
7 | GUCCAGCAAUAUUACGACUA | -1.52 ± 0.11 | -0.869 ± 0.11
8 | GUCCAGCAAUAUUACGACUG | -4.63 ± 0.39 | -1.86 ± 0.22
9 | GUCCAGCAAUAUUACGAGUA | -2.36 ± 0.16 | -0.787 ± 0.12
10 | GUCCAGCAAUAUUACGAUAG | -3.53 ± 0.14 | -2.89 ± 0.17
11 | GUCCAGCAAUAUUACGAUUG | -3.41 ± 0.17 | -3.17 ± 0.24
12 | GUCCAGCAAUAUUACGCAGU | -0.463 ± 0.046 | -0.161 ± 0.058
13 | GUCCAGCAAUAUUACGCAUA | -0.663 ± 0.091 | -0.0806 ± 0.094
14 | GUCCAGCAAUAUUACGGACA | -2.84 ± 0.26 | -1.67 ± 0.18
15 | GUCCAGCAAUAUUACGGAGU | -0.181 ± 0.063 | -0.404 ± 0.084
16 | GUCCAGCAAUAUUACGGGUA | -0.764 ± 0.061 | 0.14 ± 0.066
17 | GUCCAGCAAUAUUACGGUGU | -0.42 ± 0.066 | 0.833 ± 0.081
18 | GUCCAGCAAUAUUACGUAAC | -0.291 ± 0.073 | -0.649 ± 0.095
19 | GUCCAGCAAUAUUACGUAUA | -1.37 ± 0.073 | -0.787 ± 0.073
20 | GUCCAGCAAUAUUACGUAUU | -0.819 ± 0.078 | -0.174 ± 0.09
21 | GUCCAGCAAUAUUACGUGUA | -0.96 ± 0.073 | 0.159 ± 0.077
22 | GUCCAGCAAUAUUACGUUCA | -0.971 ± 0.088 | 0.797 ± 0.087
23 | GUCGAGCAAUAUUACGAAGU | -1.31 ± 0.33 | -1.65 ± 0.4
24 | GUCGAGCAAUAUUACGACGU | -0.827 ± 0.19 | -0.341 ± 0.16

Row | Sequence | self-splicing fitness (ln) (30 °C) | self-splicing fitness (ln) (37 °C)
25 | GUCGAGCAAUAUUACGACUC | -2.05 ± 0.32 | -1.15 ± 0.36
26 | GUCGAGCAAUAUUACGAGCC | -3.81 ± 0.47 | –
27 | GUCGAGCAAUAUUACGAUCG | -3.65 ± 0.23 | -1.38 ± 0.18
28 | GUCGAGCAAUAUUACGAUUA | 0.373 ± 0.19 | -0.944 ± 0.2
29 | GUCGAGCAAUAUUACGCAAC | -1.92 ± 0.33 | -0.123 ± 0.22
30 | GUCGAGCAAUAUUACGCAGA | -2.79 ± 0.32 | -1.61 ± 0.39
31 | GUCGAGCAAUAUUACGCAGU | -2.71 ± 0.17 | -1.17 ± 0.14
32 | GUCGAGCAAUAUUACGCUGU | -1.73 ± 0.13 | -1.62 ± 0.2
33 | GUCGAGCAAUAUUACGCUUC | -5.12 ± 0.38 | -4.17 ± 0.33
34 | GUCGAGCAAUAUUACGGCCU | -2.83 ± 0.34 | –
35 | GUCGAGCAAUAUUACGGCGA | -3.05 ± 0.21 | -1.9 ± 0.25
36 | GUCGAGCAAUAUUACGGGGU | -1.92 ± 0.16 | -1.74 ± 0.18
37 | GUCGAGCAAUAUUACGGUAA | -1.74 ± 0.19 | -2.18 ± 0.19
38 | GUCGAGCAAUAUUACGGUGC | -2.4 ± 0.16 | -0.222 ± 0.13
39 | GUCGAGCAAUAUUACGUAAC | -0.996 ± 0.13 | -0.434 ± 0.14
40 | GUCGAGCAAUAUUACGUAAU | -0.411 ± 0.065 | -0.515 ± 0.09
41 | GUCGAGCAAUAUUACGUAGU | -2.34 ± 0.12 | -1.47 ± 0.11
42 | GUCGAGCAAUAUUACGUCUU | -2 ± 0.1 | -1.39 ± 0.09
43 | GUCGAGCAAUAUUACGUGUC | -2.18 ± 0.08 | -1.6 ± 0.077
44 | GUCGAGCAAUAUUACGUGUU | -4.22 ± 0.28 | -2.09 ± 0.25
45 | GUCGAGCAAUAUUACGUUCC | -1.99 ± 0.24 | -0.593 ± 0.37
46 | GUCGAGCAAUAUUACGUUUU | -3.92 ± 0.32 | -2.07 ± 0.19
47 | GUCUAGCAAUAUUACGACGG | -3.01 ± 0.29 | -2.45 ± 0.27
48 | GUCUAGCAAUAUUACGACUG | -2.39 ± 0.23 | -2.73 ± 0.31

Row | Sequence | self-splicing fitness (ln) (30 °C) | self-splicing fitness (ln) (37 °C)
49 | GUCUAGCAAUAUUACGAGGG | -3.1 ± 0.11 | -1.57 ± 0.09
50 | GUCUAGCAAUAUUACGAUCC | -0.754 ± 0.16 | 0.0678 ± 0.24
51 | GUCUAGCAAUAUUACGAUGC | 0.169 ± 0.14 | -0.841 ± 0.13
52 | GUCUAGCAAUAUUACGAUUC | -0.168 ± 0.094 | 0.284 ± 0.1
53 | GUCUAGCAAUAUUACGCAAG | – | -1.66 ± 0.38
54 | GUCUAGCAAUAUUACGCCAU | -2.11 ± 0.26 | -2.04 ± 0.18
55 | GUCUAGCAAUAUUACGCCCA | -0.688 ± 0.26 | -0.356 ± 0.26
56 | GUCUAGCAAUAUUACGCCCG | -0.678 ± 0.27 | -0.293 ± 0.34
57 | GUCUAGCAAUAUUACGCCGA | -1.65 ± 0.19 | -0.506 ± 0.15
58 | GUCUAGCAAUAUUACGCCGU | -0.884 ± 0.23 | -0.0862 ± 0.26
59 | GUCUAGCAAUAUUACGCGCA | -0.481 ± 0.098 | 0.157 ± 0.087
60 | GUCUAGCAAUAUUACGCGGA | -2.61 ± 0.33 | -2.07 ± 0.27
61 | GUCUAGCAAUAUUACGGAAU | -0.979 ± 0.11 | 0.135 ± 0.11
62 | GUCUAGCAAUAUUACGGACC | -3.95 ± 0.46 | -0.565 ± 0.24
63 | GUCUAGCAAUAUUACGGAGG | -3.98 ± 0.3 | -1.59 ± 0.18
64 | GUCUAGCAAUAUUACGGAGU | -0.693 ± 0.096 | 0.121 ± 0.093
65 | GUCUAGCAAUAUUACGGCGU | 0.142 ± 0.069 | 0.0882 ± 0.091
66 | GUCUAGCAAUAUUACGGGCC | -3.14 ± 0.36 | –
67 | GUCUAGCAAUAUUACGUAGU | -0.529 ± 0.087 | 0.276 ± 0.092
68 | GUCUAGCAAUAUUACGUAUG | -2.94 ± 0.18 | -0.896 ± 0.13
69 | GUCUAGCAAUAUUACGUCUG | -2.49 ± 0.14 | -1.51 ± 0.13
70 | GUCUAGCAAUAUUACGUUAG | -2.42 ± 0.16 | -2.28 ± 0.21
71 | GUCUAGCAAUAUUACGUUCA | -0.225 ± 0.11 | 0.35 ± 0.12
72 | GUCUAGCAAUAUUACGUUCU | -0.494 ± 0.098 | -0.247 ± 0.11

Row | Sequence | self-splicing fitness (ln) (30 °C) | self-splicing fitness (ln) (37 °C)
73 | GUCUAGCAAUAUUACGUUGC | -2.55 ± 0.42 | -0.754 ± 0.41
74 | GUGAAGCAAUAUUACGAAAA | -1.44 ± 0.14 | -0.831 ± 0.18
75 | GUGAAGCAAUAUUACGACGU | 0.815 ± 0.1 | 0.675 ± 0.1
76 | GUGAAGCAAUAUUACGACUU | -0.643 ± 0.056 | -0.276 ± 0.084
77 | GUGAAGCAAUAUUACGCCGG | -1.96 ± 0.45 | –
78 | GUGAAGCAAUAUUACGCCUA | -0.415 ± 0.11 | -0.226 ± 0.17
79 | GUGAAGCAAUAUUACGCGUC | -2.19 ± 0.19 | -0.692 ± 0.16
80 | GUGAAGCAAUAUUACGCUGA | -1.32 ± 0.092 | -1.09 ± 0.13
81 | GUGAAGCAAUAUUACGCUUA | -1.49 ± 0.087 | -0.459 ± 0.13
82 | GUGAAGCAAUAUUACGGAAA | -1.64 ± 0.11 | -0.16 ± 0.17
83 | GUGAAGCAAUAUUACGGAUG | -0.987 ± 0.07 | -0.586 ± 0.098
84 | GUGAAGCAAUAUUACGGCCA | -0.0192 ± 0.11 | 0.468 ± 0.15
85 | GUGAAGCAAUAUUACGGGGG | -2.67 ± 0.14 | -3.08 ± 0.14
86 | GUGAAGCAAUAUUACGGGGU | -3.53 ± 0.16 | -1.45 ± 0.14
87 | GUGAAGCAAUAUUACGGUGC | -1.74 ± 0.27 | -0.977 ± 0.27
88 | GUGAAGCAAUAUUACGUGGU | -4.17 ± 0.24 | -1.61 ± 0.14
89 | GUGCAGCAAUAUUACGAAAG | -1.58 ± 0.18 | -2.38 ± 0.27
90 | GUGCAGCAAUAUUACGAACU | -1.16 ± 0.11 | 0.161 ± 0.12
91 | GUGCAGCAAUAUUACGAAGU | -1.74 ± 0.14 | -0.554 ± 0.17
92 | GUGCAGCAAUAUUACGAAUG | -2.95 ± 0.16 | -2.01 ± 0.19
93 | GUGCAGCAAUAUUACGACGC | -0.518 ± 0.099 | 0.23 ± 0.13
94 | GUGCAGCAAUAUUACGAGAC | -2.12 ± 0.13 | -1.53 ± 0.12
95 | GUGCAGCAAUAUUACGAUAG | -2.3 ± 0.22 | -2.21 ± 0.27
96 | GUGCAGCAAUAUUACGAUGG | -3.54 ± 0.37 | -3.15 ± 0.47
